According to patent publication US11414648B2, “Methods and compositions for production of fallopian tube epithelium” (CEDARS-SINAI MEDICAL CENTER, priority 2017, dated 2022):

B1: WNT3A: human recombinant WNT3A (R&D Systems) (protein, UniProt P56704 19-352, looked up)
Protein Wnt-3a: SYPIWWSLAVGPQYSSLGSQPILCASIPGLVPKQLRFCRNYVEIMPSVAEGIKIGIQECQHQFRGRRWNCTTVHDSLAIFGPVLDKATRESAFVHAIASAGVAFAVTRSCAEGTAAICGCSSRHQGSPGKGWKWGGCSEDIEFGGMVSREFADARENRPDARSAMNRHNNEAGRQAIASHMHLKCKCHGLSGSCEVKTCWWSQPDFRAIGDFLKDKYDSASEMVVEKHRESRGWVETLRPRYTYFKVPTERDLVYYEASPNFCEPNPETGSFGTRDRTCNVSSHGIDGCDLLCCGRGHNARAERRREKCRCVFHWCCYVSCQECTRVYDVHTCK
B2: BMP4: BMP4 growth factor (R&D Systems) (protein, UniProt P12644 293-408, looked up)
Bone morphogenetic protein 4: SPKHHSQRARKKNKNCRRHSLYVDFSDVGWNDWIVAPPGYQAFYCHGDCPFPLADHLNSTNHAIVQTLVNSVNSSIPKACCVPTELSAISMLYLDEYDKVVLKNYQEMVVEGCGCR
B3: WNT4: human recombinant WNT4 (R&D Systems) (protein, UniProt P56705 23-351, looked up)
Protein Wnt-4: SNWLYLAKLSSVGSISEEETCEKLKGLIQRQVQMCKRNLEVMDSVRRGAQLAIEECQYQFRNRRWNCSTLDSLPVFGKVVTQGTREAAFVYAISSAGVAFAVTRACSSGELEKCGCDRTVHGVSPQGFQWSGCSDNIAYGVAFSQSFVDVRERSKGASSSRALMNLHNNEAGRKAILTHMRVECKCHGVSGSCEVKTCWRAVPPFRQVGHALKEKFDGATEVEPRRVGSSRALVPRNAQFKPHTDEDLVYLEPSPDFCEQDMRSGVLGTRGRTCNKTSKAIDGCELLCCGRGFHTAQVELAERCSCKFHWCCFVKCRQCQRLVELHTCR
B4: activin A: human recombinant activin A (Stemgent), growth factor (protein, UniProt P08476 311-426, looked up)
Inhibin beta A chain: GLECDGKVNICCKKQFFVSFKDIGWNDWIIAPSGYHANYCEGECPSHIAGTSGSSLSFHSTVINHYRMRGHSPFANLKSCCVPTKLRPMSMLYYDDGQNIIKKDIQNMIVEECGCS
modifications: Inhibin beta A chain activin A homodimer
B5: BMP7: Bone Morphogenetic Protein used in the Mae et al (2013) protocol (protein, UniProt P18075 293-431, looked up)
Bone morphogenetic protein 7: STGSKQRSQNRSKTPKNQEALRMANVAENSSSDQRQACKKHELYVSFRDLGWQDWIIAPEGYAAYYCEGECAFPLNSYMNATNHAIVQTLVHFINPETVPKPCCAPTQLNAISVLYFDDSSNVILKKYRNMVVRACGCH

Legend:
Format in all cases: cell-based
human iPSCs [1] = test: Differentiation of human iPSCs into mesoderm (qPCR/immunocytochemistry of MIXL1, BRACHYURY); settings: 100 ng/ml activin A and 3 μM CHIR99021 used together; iPSC line 87iCTR-n3; peak at day 2
Procedure: Human iPSCs were split onto Matrigel-coated plates, and cultured in mTeSR®1 medium until 80% confluent. Three intermediate protocols were compared, according to Mae et al. (2013), Xia et al. (2013), and Takasato et al. (2014). […]
Total cellular RNA was isolated using Qiagen RNeasy Mini kit according to the manufacturer's recommendations (Qiagen). Of RNeasy-treated total RNA (1 μg) was used for cDNA synthesis using the Quantitect Reverse Transcription Kit for cDNA synthesis for PCR (Qiagen). […]

[2] = test system: intermediate mesoderm (IM) cells derived from human iPSCs; test: Differentiation of intermediate mesoderm into Müllerian duct / FTE precursor vs nephric duct (marker expression); settings: for expression of kidney markers SIX2 and FOXD1: qPCR, relative to iPSC day 0, 87iCTR-n3
Procedure: (§1) Human iPSCs were split onto Matrigel-coated plates, and cultured in mTeSR®1 medium until 80% confluent. Three intermediate protocols were compared, according to Mae et al. (2013), Xia et al. (2013), and Takasato et al. (2014). The final protocol that achieved best efficiency and results for creating fallopian tube epithelium was a modified Mae et. al., (2013) protocol, as defined below. • Day 0-2: Cells were exposed to 100 ng/ml human recombinant activin A (Stemgent) and 3 μM CHIR99021 (Cayman Chemicals) to differentiate towards mesoderm, and cultured in DMEM/F12 (Gibco)+Glutamax (Invitrogen) supplemented with 500 U/ml penicillin streptomycin (Gibco) and 2% fetal bovine serum (FBS) with addition of 10 μM ROCK inhibitor Y-27632 (Stemgent). • Day 2-4: To differentiate towards IM, media was changed to DMEM/F12 (Gibco)+Glutamax (Invitrogen) supplemented with 0.1 mM non-essential amino acids (Invitrogen), 500 u/ml penicillin/streptomycin (Gibco), 0.55 mM 2-mercaptoethanol, 10% KOSR (Invitrogen), 100 ng/ml BMP4 (R&D Systems), 3 μM CHIR99021 (Cayman Chemicals), and 10 μM ROCK inhibitor Y-27632 (Stemgent). • Day 4-6: Spheroids were collected from wells and re-plated per methods described below. To differentiate the spheroid cultures towards Müllerian epithelium, media was changed to Fallopian tube media (FTM) containing DMEM/F12 (Gibco)+500 u/ml penicillin/streptomycin (Gibco), and 10 ml reconstituted Ultroser G (15950-017, Pall) and 10 μM ROCK inhibitor Y-27632 (Stemgent). To the FTM, 100 ng/ml human recombinant WNT4 (R&D Systems) with or without 3 μM CHIR99021(Cayman Chemicals), 100 ng/ml human recombinant WNT3A (R&D Systems) with or without 3 μM CHIR99021 (Cayman Chemicals) were added. • Day 6-8: FTM was changed and 20 ng/ml human recombinant Follistatin (Peprotech), 1 ng/ml estrogen and 33 ng/ml progestrone were added.
(§2) Total cellular RNA was isolated using Qiagen RNeasy Mini kit according to the manufacturer's recommendations (Qiagen). Of RNeasy-treated total RNA (1 μg) was used for cDNA synthesis using the Quantitect Reverse Transcription Kit for cDNA synthesis for PCR (Qiagen). Real-time PCR was performed using the SYBR Green Supermix (BioRad). The levels of expression of respective genes were normalized to corresponding GAPDH values and are shown as fold change relative to the value of the control sample. All sample analyses were carried out in triplicate.
(§3) Monolayer cultures were grown on poly-1-lysine and ornithine coated glass coverslips. Cells were washed once with phosphate buffered saline (PBS) and fixed with 4% paraformaldehyde (PFA) in 1× PBS for 20 minutes and permeabilized in PBS containing 0.5% Triton X-100 (PBS-T) (Sigma) for 5 minutes at room temperature. […]

human iPSCs [3] = test: Differentiation of mesoderm into intermediate mesoderm (IM) (marker expression); settings: for transient upregulation of BRACHYURY and MIXL1 seen during gastrulation: BMP4 vs BMP7 treatment, 87iCTR-n3 iPSC line
Procedure: as §1, §2, §3

Molecule | mesoderm induction (MIXL1 and BRACHYURY) (human iPSCs [1]) | expression of kidney markers SIX2 and FOXD1 [2] | transient upregulation of BRACHYURY and MIXL1 seen during gastrulation (human iPSCs [3]) | further results
Cc1c[nH]c(-c2cnc(NCCNc3ccc(C#N)cn3)nc2-c2ccc(Cl)cc2Cl)n1 [CHIR99021, reference compound] | rapidly and efficiently specified human iPSCs (line 87iCTR-n3) into mesoderm |  |  | 
B1 |  | increased expression |  | decreased levels of WT1 and OVGP1 compared to WNT4 treatment ([2]; WNT3A treatment (nephric duct differentiation) vs WNT4): ~10 fold
B2 |  |  | expected transient upregulation | mesoderm differentiation into IM, based on expression of early IM markers PAX2, OSR1 and GATA3 (human iPSCs [3]; 100 ng/ml, day 2-4, compared with BMP7 of Mae et al protocol): optimal mesoderm differentiation into IM; expression of endoderm-marker SOX17 and ectoderm-marker NCAM (human iPSCs [3]; differentiation protocol that included BMP4, 87iCTR-n3): no to very low detectable expression levels
B3 |  | lack of expression |  | expression of fallopian tube precursor (Müllerian duct) markers WT1 and OVGP1 ([2]; qPCR and immunocytochemistry, 100 ng/ml WNT4 on day 4 followed by 20 ng/ml Follistatin on day 6, WNT4/CHIR compared to WNT4 alone): upregulated expression over time
B4 | rapidly and efficiently specified human iPSCs (line 87iCTR-n3) into mesoderm |  |  | 
B5 |  |  | not recapitulated | 
